From US9260500B2, “Peptide and use thereof” (Takeda Pharmaceutical Company Limited, priority 2009, dated 2016)
Starred links: 1 amine or outer side, 2 acyl side, 3 side chain; linkers in the order of their positions; H or OH if unused. Non-standard residues stand in square brackets, D forms with d. Primed or numbered codes have the meaning given here. No end group written: not given here. Azetidine3carboxylic = O=C(C1CN([*:1])C1)[*:2]; Phe(4-F) = N[C@@H](Cc1ccc(F)cc1)C(=O)O; 4Pal = N[C@@H](Cc1ccncc1)C(=O)O; Cha = N[C@@H](CC1CCCCC1)C(=O)O; Iva = CC[C@](C)(N)C(=O)O; PEG2′ = not defined here; Abu = CC[C@H](N)C(=O)O; Aib = CC(C)(N)C(=O)O; Aoc = NCCCCCCCC(=O)O

Experiments:
human Y2 receptor [1] = biological target: T1, human Y2 receptor (Homo sapiens, UniProt P49146); experiment: Human Y2 Receptor G Protein Binding Assay (GBA), [35S]GTPγS; format: biochemical; details: EC50 of test compound/EC50 of PYY(3-36) (PYY3-36 taken as 1), hY2R/CHO membrane fraction
T1 construct: expressed in transfected cells; membrane fraction
T1 sequence (P49146 1-381): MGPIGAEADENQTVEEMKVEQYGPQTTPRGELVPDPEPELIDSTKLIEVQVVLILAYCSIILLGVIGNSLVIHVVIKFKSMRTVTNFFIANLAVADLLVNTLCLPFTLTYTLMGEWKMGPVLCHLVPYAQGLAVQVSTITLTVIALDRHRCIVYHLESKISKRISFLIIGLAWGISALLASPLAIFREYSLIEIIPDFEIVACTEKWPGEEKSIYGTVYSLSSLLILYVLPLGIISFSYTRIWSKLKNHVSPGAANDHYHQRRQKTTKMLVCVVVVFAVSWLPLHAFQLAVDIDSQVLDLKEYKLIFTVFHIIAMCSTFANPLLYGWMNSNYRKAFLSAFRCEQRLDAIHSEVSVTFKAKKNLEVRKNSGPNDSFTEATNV
Method: (3) Test Method: Human Y2 Receptor G Protein Binding Assay (GBA)
The agonist activity of the compound of the present invention against the human Y2 receptor was measured by the method described below.
2 μL of the test compound, serially diluted with DMSO from 100 μM to 1 nM, was dispensed to a 96-well plate, and 100 μL of the membrane fraction, previously diluted with an assay buffer (50 mM Tris, 5 mM MgCl2, 150 mM NaCl, […], 0.03% NaN3, 0.1% BSA, pH 7.4) to 1 μg protein/mL, was dispensed thereto, subsequently, 100 μL of a [^35S]GTPγS (NEG030H, PerkinElmer, previously diluted with the assay buffer to 1 nM) was added, and they were mixed by pipetting. After incubation at room temperature for 120 minutes, the mixture was filtered through the cell harvester FilterMate (PerkinElmer) using the UniFilter-96 GF/C (PerkinElmer), and the filter was washed 3 times with a filtering buffer (50 mM Tris, 5 mM MgCl2, 150 mM NaCl, 0.03% NaN3, 0.05% CHAPS, pH 7.4). Thereafter, UniFilter-96 GF/C was dried in a mechanical drier for 1 hour, 15 μl of the liquid scintillator MicroScint O (PerkinElmer) was added to each well, and a measurement was taken using TopCount (PerkinElmer). The data obtained were analyzed using Prism to calculate the EC50 value. The agonist activity of the test compound was expressed as a ratio to the EC50 value of PYY3-36 taken as 1 (EC50 Ratio: EC50 of test compound/EC50 of PYY(3-36)). The results are shown in the GBA column in Table 5 (Table 5-1-Table 5-10).

human Y2 receptor [2] = biological target: T1, human Y2 receptor; experiment: Receptor Binding Assay (RBA) for Human Y2, [125I]-PYY displacement on hY2R/CHO membrane fraction; details: IC50 of test compound/IC50 of PYY(3-36) (PYY(3-36) taken as 1)
Method: (1) Construction of Expression Plasmid for the Human Y2 Receptor (Y2R) Gene
PCR was performed by a reaction using Pfu DNA polymerase ([…]), with a human brain cDNA (PT3158-1, Clontech) as the template, wherein synthetic DNAs with the following sequences were used as a combination of 5′ and 3′ primers, whereby the human Y2R gene was cloned. Primer 1 was prepared on the basis of base sequence information on the human Y2R gene (Refseq ID No. NM_000910) with the addition of Kozak's consensus sequence. Primer 2 was prepared on the basis of base sequence information on the human Y2R gene.
The PCR product obtained was cloned into pCR4-Blunt-TOPO (Invitrogen), and the plasmid was extracted according to a conventional method (QIAwell 8 Plus, QIAGEN). After confirming the base sequence, the human Y2R gene was re-cloned by a PCR reaction with the plasmid DNA as the template, using Primer 1 as the 5′ primer and Primer 2 as the 3′ primer. The PCR was performed using the Pyrobest DNA polymerase (TaKaRa). The PCR product obtained was re-cloned into pCR-Blunt II-TOPO (Invitrogen), and the plasmid was extracted according to a conventional method (QIAGEN). An Xho I restriction enzyme digestion site and an Spe I restriction enzyme digestion site are present in the cloning site of the pCR-Blunt II-TOPO; a plasmid clone was selected wherein the human Y2R gene was inserted in the orientation such that the Xho I restriction enzyme digestion site was positioned upstream of Primer 1, and the Spe I restriction enzyme digestion site was positioned downstream of Primer 2. After confirming the base sequence, the plasmid clone was digested with the restriction enzymes Xho I and Spe I to yield a DNA fragment. The DNA fragment was inserted into the animal cell expression vector pAKKO-111H (the same plasmid as pAKKO-1.111H described in Biochem. Biophys. Acta, Hinuma, S. et al., 1219, 251-259 (1994)), which was enzymatically digested with Sal I and Spe I, to yield the expression plasmid pAK-hY2R (pAKKO-111H/Y2R).
(2) Test Method: Receptor Binding Assay (RBA) for Human Y2
A human NPY2R (hY2R) stable expression cell line was acquired by transducing the animal cell expression plasmid pAK-hY2R into CHO/dhfr-cells using the CellPhect Transfection kit (Amersham Pharmacia Biotech Co.). First, 240 μl of Buffer A (attached to the CellPhect Transfection kit) was added to 9.6 μg of the plasmid DNA dissolved in 240 μl of distilled water; this mixture was stirred and allowed to stand for 10 minutes, after which 480 μL of Buffer B (attached to the CellPhect Transfection kit) was added, and the mixture was vigorously stirred to form a liposome containing the DNA. 2.5×10^5 or 4×10^5 CHO/dhfr− cells (obtained from ATCC) were seeded to 60 mm petri dishes, and cultured in Ham's F-12 medium (Sigma Co.) containing 10% fetal bovine serum (BioWest Co.) at 37° C. in 5% gaseous carbon dioxide for 1 day, after which 480 μL of the liposome was added drop by drop on to the cells in each petri dish. This was cultured at 37° C. in 5% gaseous carbon dioxide for 6 hours, after which the cells were twice washed with serum-free Ham's F-12 medium; 3 mL of 15% glycerol was added onto the cells in the petri dish and treated for 2 minutes. This was again washed 3 times with serum-free Ham's F-12 medium, after which the cells were cultured in Ham's F-12 medium containing 10% fetal bovine serum at 37° C. in 5% gaseous carbon dioxide. The cells were dispersed by trypsinization and recovered from the petri dishes, and seeded to a 6-well plate at 2.5×10^4 or 4×10^4 cells per well; cultivation was begun in Dulbecco's modified Eagle medium <DMEM> medium (Sigma Co.) containing dialyzed 10% fetal bovine serum (Invitrogen Co.) at 37° C. in 5% gaseous carbon dioxide. Since plasmid-introduced transformant CHO cells grow in the medium, whereas cells without plasmid introduction die gradually, about 20 colonies of transformed CHO cell that had grown 9-13 days after the start of the cultivation were isolated. […]

| GBA EC50 Ratio (human Y2 receptor [1]) | RBA IC50 Ratio (human Y2 receptor [2]) | Substance |
| --- | --- | --- |
| 20 | 43 | Ac-[D-Pro24, Cha27,28,36, Iva30, Aib31]-PYY(23-36) (Ac-S[dP]RH[Cha][Cha]N[Iva][Aib]TRQR[Cha]-NH2; SMILES CC[C@](C)(NC(=O)[C@H](CC(N)=O)NC(=O)[C@H](CC1CCCCC1)NC(=O)[C@H](CC1CCCCC1)NC(=O)[C@H](Cc1c[nH]cn1)NC(=O)[C@H](CCCNC(=N)N)NC(=O)[C@H]1CCCN1C(=O)[C@H](CO)NC(C)=O)C(=O)NC(C)(C)C(=O)N[C@H](C(=O)N[C@@H](CCCNC(=N)N)C(=O)N[C@@H](CCC(N)=O)C(=O)N[C@@H](CCCNC(=N)N)C(=O)N[C@@H](CC1CCCCC1)C(N)=O)[C@@H](C)O) [compound No. 202] |
| 4.2 | 5.2 | Ac-[D-Pro24, Iva26, Cha27,28,36, Aib31]-PYY(23-36) (Ac-S[dP]R[Iva][Cha][Cha]NL[Aib]TRQR[Cha]-NH2; SMILES CC[C@](C)(NC(=O)[C@H](CCCNC(=N)N)NC(=O)[C@H]1CCCN1C(=O)[C@H](CO)NC(C)=O)C(=O)N[C@@H](CC1CCCCC1)C(=O)N[C@@H](CC1CCCCC1)C(=O)N[C@@H](CC(N)=O)C(=O)N[C@@H](CC(C)C)C(=O)NC(C)(C)C(=O)N[C@H](C(=O)N[C@@H](CCCNC(=N)N)C(=O)N[C@@H](CCC(N)=O)C(=O)N[C@@H](CCCNC(=N)N)C(=O)N[C@@H](CC1CCCCC1)C(N)=O)[C@@H](C)O) [compound No. 176] |
| 11 | 15 | [D-Ser23, Abu26, Cha27,28,36, Aib31]-PYY(23-36) ([dS]LR[Abu][Cha][Cha]NL[Aib]TRQR[Cha]-NH2; N-terminus assumed; SMILES CC[C@H](NC(=O)[C@H](CCCNC(=N)N)NC(=O)[C@H](CC(C)C)NC(=O)[C@H](N)CO)C(=O)N[C@@H](CC1CCCCC1)C(=O)N[C@@H](CC1CCCCC1)C(=O)N[C@@H](CC(N)=O)C(=O)N[C@@H](CC(C)C)C(=O)NC(C)(C)C(=O)N[C@H](C(=O)N[C@@H](CCCNC(=N)N)C(=O)N[C@@H](CCC(N)=O)C(=O)N[C@@H](CCCNC(=N)N)C(=O)N[C@@H](CC1CCCCC1)C(N)=O)[C@@H](C)O) [compound No. 85] |
| 4.7 | 11 | Ac-[Aze(3)24, Cha27,28,36, Aib31]-PYY(23-36) (Ac-S[Azetidine3carboxylic]RH[Cha][Cha]NL[Aib]TRQR[Cha]-NH2; SMILES CC(=O)N[C@@H](CO)C(=O)N1CC(C(=O)N[C@@H](CCCNC(=N)N)C(=O)N[C@@H](Cc2c[nH]cn2)C(=O)N[C@@H](CC2CCCCC2)C(=O)N[C@@H](CC2CCCCC2)C(=O)N[C@@H](CC(N)=O)C(=O)N[C@@H](CC(C)C)C(=O)NC(C)(C)C(=O)N[C@H](C(=O)N[C@@H](CCCNC(=N)N)C(=O)N[C@@H](CCC(N)=O)C(=O)N[C@@H](CCCNC(=N)N)C(=O)N[C@@H](CC2CCCCC2)C(N)=O)[C@@H](C)O)C1) [compound No. 113] |

Second part, the substance before the results:

| Substance | GBA EC50 Ratio (human Y2 receptor [1]) | RBA IC50 Ratio (human Y2 receptor [2]) |
| --- | --- | --- |
| Ac-[Abu23, D-Pro24, Abu26, Cha27,28,36, Aib31]-PYY(23-36) (Ac-[Abu][dP]R[Abu][Cha][Cha]NL[Aib]TRQR[Cha]-NH2; SMILES CC[C@H](NC(=O)[C@H](CCCNC(=N)N)NC(=O)[C@H]1CCCN1C(=O)[C@H](CC)NC(C)=O)C(=O)N[C@@H](CC1CCCCC1)C(=O)N[C@@H](CC1CCCCC1)C(=O)N[C@@H](CC(N)=O)C(=O)N[C@@H](CC(C)C)C(=O)NC(C)(C)C(=O)N[C@H](C(=O)N[C@@H](CCCNC(=N)N)C(=O)N[C@@H](CCC(N)=O)C(=O)N[C@@H](CCCNC(=N)N)C(=O)N[C@@H](CC1CCCCC1)C(N)=O)[C@@H](C)O) [compound No. 105] | 4.0 | 6.9 |
| [(PEG2)23, D-Pro24, Cha27,28,36, Aib31]-PYY(23-36) ([PEG2′][dP]RH[Cha][Cha]NL[Aib]TRQR[Cha]-NH2) [compound No. 118] | 0.9 | 0.9 |
| [Aoc(8)23, D-Pro24, Cha27,28,36, Aib31]-PYY(23-36) ([Aoc][dP]RH[Cha][Cha]NL[Aib]TRQR[Cha]-NH2; N-terminus assumed; SMILES CC(C)C[C@H](NC(=O)[C@H](CC(N)=O)NC(=O)[C@H](CC1CCCCC1)NC(=O)[C@H](CC1CCCCC1)NC(=O)[C@H](Cc1c[nH]cn1)NC(=O)[C@H](CCCNC(=N)N)NC(=O)[C@H]1CCCN1C(=O)CCCCCCCN)C(=O)NC(C)(C)C(=O)N[C@H](C(=O)N[C@@H](CCCNC(=N)N)C(=O)N[C@@H](CCC(N)=O)C(=O)N[C@@H](CCCNC(=N)N)C(=O)N[C@@H](CC1CCCCC1)C(N)=O)[C@@H](C)O) [compound No. 117] | 1.9 | 2.1 |
| Ac-[D-Pro24, Pya(4)26, Phe(4F)27, Aib28,31, Lys30, Cha36]-PYY(23-36) (Ac-S[dP]R[4Pal][Phe(4-F)][Aib]NK[Aib]TRQR[Cha]-NH2; SMILES CC(=O)N[C@@H](CO)C(=O)N1CCC[C@@H]1C(=O)N[C@@H](CCCNC(=N)N)C(=O)N[C@@H](Cc1ccncc1)C(=O)N[C@@H](Cc1ccc(F)cc1)C(=O)NC(C)(C)C(=O)N[C@@H](CC(N)=O)C(=O)N[C@@H](CCCCN)C(=O)NC(C)(C)C(=O)N[C@H](C(=O)N[C@@H](CCCNC(=N)N)C(=O)N[C@@H](CCC(N)=O)C(=O)N[C@@H](CCCNC(=N)N)C(=O)N[C@@H](CC1CCCCC1)C(N)=O)[C@@H](C)O) [compound No. 305] | 3.9 | 10 |
